These results are taken from paper PMC5043019, “Unique and Universal Features of Epsilonproteobacterial Origins of Chromosome Replication and DnaA-DnaA Box Interactions” (Frontiers in Microbiology, 2016).

This series deals with the molecule itself. Put plainly: electron microscopy; purified DnaA (3 mM ATP) incubated with supercoiled plasmids carrying oriC1-dnaA-oriC2 (pAbori1ori2, pSdori1ori2, pWsoriori2); complexes stabilised by glutaraldehyde cross-linking, linearised with ScaI; looped DNA with one protein complex joining oriC1 and oriC2; DnaA molecules are DNA-bound.

B1: Wolinella succinogenes DnaA protein (natural protein, W. succinogenes DSM 1740, UniProt Q7MSY2 1-437, looked up)
chain: MLGDTTLKQLKDEISTLEYERYIKQLRYDEEASRTDLAVYIAPNQFIANWVKTKYGERLAHLFELSTGIRPKIEIRLGSLKKDVKSSSPKAGVSKGQKSTILNPSFTFDSFVVGNSNRFAYEVSQNVAKKQGIAYNPLLIYGGTGLGKTHLLNSIGNYNVAKGKSVIYVTSEQFLNDYLYHIRNNTMDRFRDKYRACDYLLIDDVQFFGGKPQIQEEFFHTFNELHNKNKQIVLTSDKTPKQIAGLEERLKSRFEWGMVSDIQPPELETKINIIKKKCEFDGIYLSNEIISYIATNMDNNIREIEGIIIKLNAYANLMNQEITLQFAKNVLKEQIKEERENITLENIIEVVSKELNVKPAEIKSKGRSKNIANARRIVIFLARTLTPNSMPSLAQFFGMKDHSSVSKAMKTVKTEIEEDANFKMVIEELKNKIKSRN
notes: chromosomal replication initiator protein DnaA of Wolinella succinogenes DSM 1740, cloned from genomic DNA; Supplemented with 3 mM ATP for electron microscopy; also called W. succinogenes DnaA; source: purified as described in (Zawilak-Pawlik et al., 2006) with minor modifications (Supplementary Materials)
For B1, the binding result is reported as “binds”.

B2: Arcobacter butzleri DnaA protein (natural protein, A. butzleri RM4018, UniProt A8EQT0 1-438, looked up)
chain: MTTKEFLTIIQKEANQIDYERYLKQLVYKKVSSDNKIAIFEVNNKYIASWIKSKFTNLIQHCFEIYDGSKPTIEIKLSNEKKSKKEILKEQTQNESTESTILNPSYTFDSFVVGPSNQMAYNASLAVANKPGIQYNPLFIYGGTGLGKTHLLQAVGNHAIEKGNTVIYVTIEQFMNDFTFSIKNKNMEHFRNKYRKCDVLLIDDIQFLSGKEQTQEEFFHTFNELHNAKKQIVMTSDRLPSQIAGLVDRLKSRFEWGLTADVQIPGLETKIAIIEKKSELNGICLSREIINFIATNLDNSIREIEGVLIRINASASLLNQEITLPMVQGLLKEQIKETKENVKLPDIINIVANQLNIKPSDIKSKKRTATVANARRIVIYLVRELTHNSMPDIAKFLGMKDHSAISHNIKKANELIEKDENFKLIIENLKNKIINSRE
notes: chromosomal replication initiator protein DnaA of Arcobacter butzleri RM4018, cloned from genomic DNA; Supplemented with 3 mM ATP for electron microscopy; also called A. butzleri DnaA; source: purified as described in (Zawilak-Pawlik et al., 2006) with minor modifications (Supplementary Materials)
For B2, the binding result is recorded as “binds”.
